{"source": "paper PMC11112747", "about": "“Cyanovirin-N Binding to N-Acetyl-D-glucosamine Requires Carbohydrate-Binding Sites on Two Different Protomers” (Biochemistry, 2024)", "target": "chemically synthesized dimannosylated peptide (DM), 12mer peptide from hemagglutinin (HA) with diman", "data": [{"substance": "CVN2L0, a tandem-linked dimeric CVN2 with zero-linker length (tandem repeat of two cyanovirin-N molecules)", "values": [{"measurement": "Kd", "value": 3.94, "unit": "µM"}]}]}
